{"source": "patent US20230049732A1", "about": "(UNIVERSITY OF LOUISVILLE RESEARCH FOUNDATION, published 2023)", "binders": {"B1": {"name": "MAb #91 (antibody, V domains shown)", "VH": "EVQLQQSGPELVKPGASVKISCKASGYSFTDYFMNWVKQSHGKSLEWIGRINPYNGDSFYNQNFRGSVTLTVDKSSGTAHMELLSLTSEDSTVYYCGAYRYDGYAMDYWGQGTSVTVSS", "VL": "DVVMTQTPLSLPVSLGDQASISCRSSQSLVHSDGNTYLHWYLQKPGQSPKLLIYKVSNRFSGVPDRFSGSGSGTDFTLKISRVEAEDLGVYFCSQSTHVPFTFGSGTKLEIK", "notes": "Murine hybridoma antibody, supernatant; also called antibody 91"}, "B2": {"name": "MAb #25 (antibody, V domains shown)", "VH": "QVQLQQPGAELVRPGASVKLSCKASGYTFTNYWMHWVKQRPEQGLEWIGRIDPYDSETHYNQKFKDKAILTVDTSSNTAYMQLSSLTSEDSAVYYCTSYYYGSNYVWHFDVWGAGTTVTVSS", "VL": "not shown", "notes": "Murine hybridoma antibody, supernatant; also called antibody 25"}}, "key": {"[1]": {"target": "T1, KEYA368A369-VLPs of B19V (parvovirus B19 genotype 1 (mutated), UniProt P07299 228-781)", "T1 construct": "also called construct D", "T1 chain": "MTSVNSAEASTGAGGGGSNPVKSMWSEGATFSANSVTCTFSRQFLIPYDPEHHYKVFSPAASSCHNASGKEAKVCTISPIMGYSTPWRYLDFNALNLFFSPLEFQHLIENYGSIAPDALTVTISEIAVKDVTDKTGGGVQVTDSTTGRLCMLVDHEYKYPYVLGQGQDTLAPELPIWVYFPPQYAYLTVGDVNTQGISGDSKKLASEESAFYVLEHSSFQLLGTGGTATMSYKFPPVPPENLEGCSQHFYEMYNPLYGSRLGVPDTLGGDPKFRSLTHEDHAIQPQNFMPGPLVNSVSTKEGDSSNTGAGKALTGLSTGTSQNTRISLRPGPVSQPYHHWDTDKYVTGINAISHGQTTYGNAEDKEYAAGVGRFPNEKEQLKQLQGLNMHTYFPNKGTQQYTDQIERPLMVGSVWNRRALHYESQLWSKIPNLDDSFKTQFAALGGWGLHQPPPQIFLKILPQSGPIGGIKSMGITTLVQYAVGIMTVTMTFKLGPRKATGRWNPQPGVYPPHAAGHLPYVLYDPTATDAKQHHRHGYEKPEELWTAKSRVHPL", "assay": "ELISA, intact VLPs coated, hybridoma supernatant"}, "[2]": {"target": "T2, VLPs of B19V genotype 3 (V9 strain VP2) (parvovirus B19 genotype 3, UniProt P07299 228-781)", "T2 construct": "Intact VLPs of non-mutated VP2", "T2 chain": "T1 chain with V21T, S32T, D191E, Q220E, T227S, P236A, V294I, S304N, A368Q, A369Q", "assay": "ELISA, VLPs coated", "procedure": "(§1) First, 96-well ELISA plates (Immunolon 2; Dynatech) were coated, either 1 h at 37° C. or overnight at 4° C., with 250 to 500 ng per well of B19V VLPs. Intact VLPs were re-suspended in PBS, and the disrupted VLPs were re-suspended in the following solution: 0.2 M NaCO₃, 0.01 M dithiothreitol, pH 7.0, to detect sequential epitopes. The plates were washed three times with PBS, then saturated with bovine albumin via PBS containing 5% bovine serum albumin (5% PBSA) for 1 h at 37° C. After washing three times, plates were then incubated with primary antibodies. Primary antibodies used were rabbit sera (at 1/1000), mouse sera (1/100 dilution) to B19V VLPs, or supernatant of hybridoma cells without dilution for 1 h at 37° C. Thereafter, plates were washed thrice with PBS, then incubated with alkaline phosphatase-conjugated secondary antibodies, with either goat anti-mouse or anti-rabbit IgG (H+L) (Sigma, USA) at a dilution of 1:5000 for 1 h at 37° C. After washing with PBS, bound antibodies were detected with an alkaline phosphatase chromogenic substrate (Phosphatase substrate, Sigma, USA), and absorption was measured at 405 nm. One percent PBSA and sera collected from pre-immune animals were used as negative controls. Human papillomavirus (HPV) and mouse parvovirus (MPV) VLPs were used to check the cross-reactivity of primary antibodies with other types of VLPs. All antibodies were diluted in 1% PBSA."}, "[3]": {"target": "T3, wtVLPs of parvovirus B19 genotype 1 (VP2 only) (parvovirus B19 genotype 1, UniProt P07299 228-781)", "T3 construct": "Intact virus-like particles self-assembled from VP2 alone, made in Sf9 cells with baculovirus; also called B19V genotype 1; Prototype Q399QYTDQ404", "T3 sequence": "T1 chain with A368Q, A369Q", "assay": "ELISA, VLPs coated", "procedure": "as §1"}, "[4]": {"target": "T4, VLPs of B19V genotype 2 (Lali strain VP2) (parvovirus B19 genotype 2, UniProt P07299 228-781)", "T4 construct": "Intact VLPs of non-mutated VP2", "T4 chain": "T1 chain with S32T, Q220E, T227S, S304T, N323S, A368Q, A369Q, M389I", "assay": "ELISA, VLPs coated", "procedure": "as §1"}}, "note": "Residue numbers refer to the chain shown, from its start."}
{"binder": "B1", "values": [{"measurement": "ELISA absorbance (405 nm)", "setting": "[1]", "result": 2.59}, {"measurement": "ELISA absorbance (405 nm)", "setting": "[2]", "result": 3.05}, {"measurement": "ELISA absorbance (405 nm)", "setting": "[3]", "result": 3.43}, {"measurement": "ELISA absorbance (405 nm)", "setting": "[4]", "result": 3.09}]}
{"binder": "B2", "values": [{"measurement": "ELISA absorbance (405 nm)", "setting": "[1]", "result": 2.79}, {"measurement": "ELISA absorbance (405 nm)", "setting": "[2]", "result": 2.65}, {"measurement": "ELISA absorbance (405 nm)", "setting": "[3]", "result": 2.67}, {"measurement": "ELISA absorbance (405 nm)", "setting": "[4]", "result": 2.54}]}
